To fix the notation:
B1: p67^phox(1–212) [not stated] / Nox2 peptide 24 (357–371), dithiol form [modified: biotin on the N-terminus; C-terminal amide; cysteines 369 and 371 in the dithiol form; biotin on the N-terminus; C-terminal … (parent)
chain 1: MSLVEAISLWNEGVLAADKKDWKGALDAFSAVQDPHSRICFNIGCMYTILKNMTEAEKAFTRSINRDKHLAVAYFQRGMLYYQTEKYDLAIKDLKEALIQLRGNQLIDYKILGLQFKLFACEVLYNIAFMYAKKEEWKKAEEQLALATSMKSEPRHSKIDKAMECVWKQKLYEPVVIPVGKLFRPNERQVAQLAKKDYLGKATVVASVVDQD
chain 2: SGSGIVGDWTEGLFNACGC

The variants in this assay derive from B1. The assay can be described thus: peptide-protein binding assay (surface-attached biotinylated peptide, protein in solution, kinetic TMB oxidation read-out). Conditions: with Nox2 peptide 24 (357–371), 10 min kinetic experiment, read off a plot.
chain 1 C40S C45S C121S C165S: the response (Absorbance (650 nm) x 1000/min) came to 10.
